Patent US20190048085A1 (CELL MEDICA SWITZERLAND, published 2019)

Key:
[1] = target: monkey PD-L1 Fc fusion (monkey (Rhesus macaque, Macaca mulatta)) (UniProt F6PJN1); assay: KinExA, room temperature, two curves (50 pM and 10 pM scFv)
[2] = target: monkey PD-L1 Fc fusion (monkey (Rhesus macaque, Macaca mulatta)) (UniProt F6PJN1); assay: KinExA, ratio of KD values
[3] = target: T1, recombinant human PD-L1 Fc fusion (human, UniProt Q9NZQ7 19-239); assay: ELISA on immobilized recombinant human PD-L1-Fc (2 µg/mL), detection with Protein L-HRP, A450 nm
T1 construct: Bought Fc fusion (RnD Systems 156-B7); also called rhPD-L1 Fc fusion; not shown: Fc part of the bought fusion
T1 sequence (Q9NZQ7 19-239 limits assumed): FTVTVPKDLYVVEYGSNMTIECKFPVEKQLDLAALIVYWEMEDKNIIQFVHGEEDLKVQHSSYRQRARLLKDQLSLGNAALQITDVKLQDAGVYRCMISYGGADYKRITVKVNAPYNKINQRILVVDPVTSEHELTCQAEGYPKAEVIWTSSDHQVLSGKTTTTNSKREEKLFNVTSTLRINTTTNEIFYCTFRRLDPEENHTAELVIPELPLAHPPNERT
Description: After, blocking with 5% non-fat dry milk, increasing concentrations of scFv was added and detected by Protein L-HRP (Sigma-Aldrich).

Kd [1]: 3.3 pM
fold tighter affinity than binding to human PD-L1 [2]: 2.7 fold
EC50 (read off the curve) [3]: ~8 ng/mL
B1: anti-PD-L1 scFv (scFv)
scFv: EIVMTQSPSTLSASVGDRVIITCQASEDIYSLLAWYQQKPGKAPKLLIYDASDLASGVPSRFSGSGSGAEFTLTISSLQPDDFATYYCQGNYGSSSSSSYGAVFGQGTKLTVLGGGGGSGGGGSGGGGSGGGGSEVQLVESGGGLVQPGGSLRLSCTVSGIDLSSYTMGWVRQAPGKGLEWVGIISSGGRTYYASWAKGRFTISRDTSKNTVYLQMNSLRAEDTAVYYCARGRYTGYPYYFALWGQGTLVTVSS
notes: Humanized scFv with rabbit CDRs, VL-linker-VH; also called scFv1; scFv control
